B1: FLAG-tagged UBAC2 (recombinant, WT) (natural protein)
chain: HCQKLFVYDLHAVKNDFQIWRLICGRIICLDLKDTFCSSLLIYNFRIFERRYGSRKFASFLLGSWVLSALFDFLLIEAMQYFFGITAASNLPSGFLAPVFALFVPFYCSIPRVQVAQILGPLSITNKTLIYILGLQLFTSGSYIWIVAISGLMSGLCYDSKMFQVHQVLCIPSWMAKFFSWTLEPIFSSSEPTSEARIGMGATLDIQRQQRMELLDRQLMFSQFAQGRRQRQQQGGMINWNRLFPPLRQRQNVNYQGGRQSEPAAPPLEVSEEQVARLMEMGFSRGDALEALRASNNDLNVATNFLLQH
B2: FLAG-tagged UbxD8 (wild type) (natural protein)
chain: MAAPEERDLTQEQTEKLLQFQDLTGIESMDQCRHTLEQHNWNIEAAVQDRLNEQEGVPSVFNPPPSRPLQVNTADHRIYSYVVSRPQPRGLLGWGYYLIMLPFRFTYYTILDIFRFALRFIRPDPRSRVTDPVGDIVSFMHSFEEKYGRAHPVFYQGTYSQALNDAKRELRFLLVYLHGDDHQDSDEFCRNTLCAPEVISLINTRMLFWACSTNKPEGYRVSQALRENTYPFLAMIMLKDRRMTVVGRLEGLIQPDDLINQLTFIMDANQTYLVSERLEREERNQTQVLRQQQDEAYLASLRADQEKERKKREERERKRRKEEEVQQQKLAEERRRQNLQEEKERKLECLPPEPSPDDPESVKIIFKLPNDSRVERRFHFSQSLTVIHDFLFSLKESPEKFQIEANFPRRVLPCIPSEEWPNPPTLQEAGLSHTEVLFVQDLTDE

What was measured:
[1] = molecular target: B2; assay: co-IP
[2] = molecular target: FLAG-tagged gp78 (UniProt Q9UKV5 1-643); assay: co-IP
FLAG-tagged gp78, sequence (Q9UKV5 whole entry): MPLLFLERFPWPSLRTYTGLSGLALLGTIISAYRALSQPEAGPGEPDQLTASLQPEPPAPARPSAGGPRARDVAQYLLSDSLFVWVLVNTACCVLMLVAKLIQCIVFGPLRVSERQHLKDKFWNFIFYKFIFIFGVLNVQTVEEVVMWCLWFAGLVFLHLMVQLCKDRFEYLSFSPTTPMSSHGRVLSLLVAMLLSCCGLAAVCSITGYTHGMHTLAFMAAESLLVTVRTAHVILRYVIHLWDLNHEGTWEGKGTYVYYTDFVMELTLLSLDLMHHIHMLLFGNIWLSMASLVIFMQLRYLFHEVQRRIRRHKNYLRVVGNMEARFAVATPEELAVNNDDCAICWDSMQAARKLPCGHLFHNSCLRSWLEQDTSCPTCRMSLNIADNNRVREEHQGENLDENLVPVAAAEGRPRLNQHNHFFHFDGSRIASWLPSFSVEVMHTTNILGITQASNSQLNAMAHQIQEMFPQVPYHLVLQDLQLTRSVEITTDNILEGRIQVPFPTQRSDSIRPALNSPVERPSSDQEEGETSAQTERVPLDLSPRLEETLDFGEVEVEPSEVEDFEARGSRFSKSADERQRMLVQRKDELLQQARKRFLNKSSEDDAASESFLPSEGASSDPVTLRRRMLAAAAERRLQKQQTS

Binder | stoichiometry N [1] [UBAC2 per UbxD8] | stoichiometry N [2]
B1 | ~2 | ~2 UBAC2 per gp78
B2 | – | ~1 UbxD8 per gp78
